Test results reported in patent US20250177530A1, “MOLECULES THAT BIND TO ENPP1 POLYPEPTIDES” (UNIVERSITY OF PITTSBURGH - OF THE COMMONWEALTH SYSTEM OF …, priority 2022, published 2025).

How the values were obtained:
[1] = target: human ENPP1 on the cell surface (293T-ENPP1 cells, HepG2 cells) (human) (UniProt P22413); assay: flow cytometry on HepG2 cells, APC-A against SSC-A
[2] = target: human ENPP1 on the cell surface (293T-ENPP1 cells, HepG2 cells) (human) (UniProt P22413); assay: flow cytometry on 293T-ENPP1 cells, APC-A against SSC-A

Chain of human ENPP1 on the cell surface (293T-ENPP1 cells, HepG2 cells) (human) (P22413 whole entry): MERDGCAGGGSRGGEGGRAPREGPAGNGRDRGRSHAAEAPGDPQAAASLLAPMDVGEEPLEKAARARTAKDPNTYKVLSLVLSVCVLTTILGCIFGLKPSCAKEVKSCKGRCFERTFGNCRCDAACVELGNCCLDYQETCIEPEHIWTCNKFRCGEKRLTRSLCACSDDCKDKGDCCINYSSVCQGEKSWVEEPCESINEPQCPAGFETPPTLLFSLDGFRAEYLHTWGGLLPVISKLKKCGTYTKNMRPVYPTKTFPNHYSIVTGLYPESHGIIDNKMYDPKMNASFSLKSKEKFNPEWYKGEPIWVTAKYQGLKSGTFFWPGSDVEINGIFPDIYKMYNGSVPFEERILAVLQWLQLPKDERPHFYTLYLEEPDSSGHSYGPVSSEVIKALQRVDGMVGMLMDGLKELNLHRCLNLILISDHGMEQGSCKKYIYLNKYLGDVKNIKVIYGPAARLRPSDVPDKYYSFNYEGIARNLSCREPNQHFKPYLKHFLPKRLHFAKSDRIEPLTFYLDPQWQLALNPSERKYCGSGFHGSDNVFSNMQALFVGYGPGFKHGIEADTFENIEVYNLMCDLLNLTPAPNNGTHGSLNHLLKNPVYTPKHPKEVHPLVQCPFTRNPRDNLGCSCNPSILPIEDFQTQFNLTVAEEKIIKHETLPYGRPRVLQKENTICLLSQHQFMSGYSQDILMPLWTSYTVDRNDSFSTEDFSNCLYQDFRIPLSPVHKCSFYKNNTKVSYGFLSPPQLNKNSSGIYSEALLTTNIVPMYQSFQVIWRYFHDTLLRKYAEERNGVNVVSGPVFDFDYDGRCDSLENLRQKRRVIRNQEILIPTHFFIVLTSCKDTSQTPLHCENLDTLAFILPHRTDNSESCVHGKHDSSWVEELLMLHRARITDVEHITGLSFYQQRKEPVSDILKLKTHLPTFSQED

## Isotype Ctrl (antibody)
[1]
  percent of cells in the APC-positive gate: 0.4%
[2]
  percent of cells in the APC-positive gate: 0.4%
